Results on one substance are retold here after US10154957B2, “Microneedle device having a peptide therapeutic agent and an amino acid and methods of making and using the same” (3M INNOVATIVE PROPERTIES COMPANY, priority 2011, dated 2018).

Data set [1] can be described thus: Stability of insulin in coating on flood-coated microneedle arrays stored at 40° C./96% RH (HPLC). It is filed as physicochemical. The note with it: insulin 5 mg/mL in 0.1 N acetic acid. The protocol: The protein or polypeptide content in the formulation coated on the microneedle arrays was determined using an Agilent 1100 HPLC system (Agilent Technologies, Wilmington, Del.) equipped with a binary pump, well-plated thermostated autosampler, thermostated column compartment, and a diode array UV detector. A Zorbax 300SB-C8 column (Agilent Technologies, Wilmington, Del.) having a 5 μm particle size and 2.1×150 mm inner diameter was used for the separations. The column was maintained at 50° C. The mobile phase consisted of two eluents. Eluent A was 0.1% TFA (trifluoroacetic acid) in water and eluent B was 0.1% TFA in acetonitrile (Spectrum Chemical, New Brunswick, N.J.). A linear gradient from 80/20 to 50/50 (A/B) was applied over 30 minutes. The flow rate was 0.4 mL/minute and the UV detection wavelength was set at 214 nm. The total run time was 34 minutes and the sample injection volume was 15 μL.
The pH of the sample formulation was 3.0-3.5. […] The pH of the control formulation was 3.0-3.5. Microneedle arrays were coated with either the sample or the control formulation. The coating was applied by dropwise addition of 50 μL of the formulation to the portion of the array defined by the octagon shaped pattern of microneedles. The flood coated arrays (both sample and control formulation coated) were dried in an oven at 35° C. for about 15 hours.
After drying, the coated arrays were placed in a storage chamber that was maintained at 40° C. and 96% relative humidity (RH). […] At the designated time point, an array was taken from the chamber and washed with 0.1 N acetic acid (1 mL) to remove the coating from the array. […] The arrays used as reference standards were stored in a refrigerator at about 4° C. and analyzed within one day of being prepared.
The same procedure as described in Example 5 was used with the exception that the sample formulation contained 12 mg/mL of L-arginine hydrochloride, instead of L-histidine monohydrochloride. The pH of the sample formulation was 3.0-3.5.

Experiment in data set [2]: as above
It is filed as physicochemical. To be noted: Amino Acid L-Histidine (His-HCl 12 mg/mL), insulin 5 mg/mL in 0.1 N acetic acid.

As for Insulin, the “Percent of Initial Insulin Content in the Coating” value (shortened to “Percent of Initial Insulin Content”) in data set [1] (Amino Acid L-Arginine (Arg-HCl 12 mg/mL), Day 1 at 40° C./96% RH) is on record as 75.4%; in data set [1] (Amino Acid L-Arginine (Arg-HCl 12 mg/mL), Day 3 at 40° C./96% RH), 45.9%; in data set [1] (Amino Acid L-Arginine (Arg-HCl 12 mg/mL), Day 7 at 40° C./96% RH), 27.1%; in data set [1] (Amino Acid L-Arginine (Arg-HCl 12 mg/mL), Initial), 100%; in data set [1] (Amino Acid None (control), Day 3 at 40° C./96% RH) it was 0%; in data set [1] (Amino Acid None (control), Day 7 at 40° C./96% RH), 0%. Further, the “Percent of Initial Insulin Content” value in data set [1] (Amino Acid None (control), Day 14 at 40° C./96% RH) is listed as 0%; in data set [1] (Amino Acid None (control), Initial), 100%; in data set [2] (Day 1 at 40° C./96% RH), 95.3%; in data set [2] (Day 3 at 40° C./96% RH), 93.5%; in data set [2] (Day 7 at 40° C./96% RH), 79.2%; in data set [2] (Day 14 at 40° C./96% RH), 34.9%. Also, the “Percent of Initial Insulin Content” value in data set [2] (Initial) turned out to be 100%.
